We go through one protein from patent US20090118185A1 (UNIVERSITY OF ROCHESTER, published 2009).

For data set [1], the target named is T1, 336(P4-P3′)562 factor VIIIa mutant.
T1 chain 1: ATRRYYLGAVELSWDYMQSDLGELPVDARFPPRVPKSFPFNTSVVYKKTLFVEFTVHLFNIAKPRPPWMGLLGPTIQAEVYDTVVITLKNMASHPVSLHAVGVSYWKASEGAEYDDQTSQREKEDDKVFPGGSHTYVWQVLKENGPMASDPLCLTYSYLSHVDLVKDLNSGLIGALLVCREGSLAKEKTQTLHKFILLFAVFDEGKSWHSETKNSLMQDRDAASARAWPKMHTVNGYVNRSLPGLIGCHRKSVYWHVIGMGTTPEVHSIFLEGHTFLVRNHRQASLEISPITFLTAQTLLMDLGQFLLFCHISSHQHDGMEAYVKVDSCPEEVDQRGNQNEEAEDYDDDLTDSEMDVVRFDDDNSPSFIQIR
T1 chain 2: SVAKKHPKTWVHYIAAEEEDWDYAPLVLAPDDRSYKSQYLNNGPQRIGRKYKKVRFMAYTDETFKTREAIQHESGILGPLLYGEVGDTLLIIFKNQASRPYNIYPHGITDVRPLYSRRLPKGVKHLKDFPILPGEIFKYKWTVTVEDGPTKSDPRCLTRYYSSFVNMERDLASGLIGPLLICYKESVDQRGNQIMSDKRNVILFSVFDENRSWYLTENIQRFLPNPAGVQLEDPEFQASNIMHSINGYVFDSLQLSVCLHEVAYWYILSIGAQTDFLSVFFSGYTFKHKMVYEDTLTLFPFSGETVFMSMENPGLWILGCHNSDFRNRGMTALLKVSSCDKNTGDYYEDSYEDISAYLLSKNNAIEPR
T1 chain 3: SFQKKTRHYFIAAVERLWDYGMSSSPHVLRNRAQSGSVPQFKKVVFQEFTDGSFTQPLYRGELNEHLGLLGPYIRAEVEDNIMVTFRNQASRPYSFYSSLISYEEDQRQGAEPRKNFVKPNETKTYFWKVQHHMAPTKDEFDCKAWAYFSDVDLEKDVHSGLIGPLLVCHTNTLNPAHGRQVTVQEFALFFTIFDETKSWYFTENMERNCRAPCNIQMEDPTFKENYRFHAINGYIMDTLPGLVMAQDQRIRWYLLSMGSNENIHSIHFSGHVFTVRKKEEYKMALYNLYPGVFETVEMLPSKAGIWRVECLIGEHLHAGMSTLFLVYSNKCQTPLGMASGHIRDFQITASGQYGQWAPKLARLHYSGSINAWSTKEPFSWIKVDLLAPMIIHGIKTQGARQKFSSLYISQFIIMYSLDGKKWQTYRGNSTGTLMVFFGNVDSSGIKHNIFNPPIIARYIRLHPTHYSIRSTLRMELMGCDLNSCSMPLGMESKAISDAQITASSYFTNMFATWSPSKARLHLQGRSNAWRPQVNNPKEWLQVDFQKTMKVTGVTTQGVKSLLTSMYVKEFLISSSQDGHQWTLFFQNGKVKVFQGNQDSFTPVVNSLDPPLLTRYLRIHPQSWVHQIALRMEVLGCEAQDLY

Data set [2] has as its target T2, 562(P4-P2)336 factor VIIIa mutant.
T2 chain 1: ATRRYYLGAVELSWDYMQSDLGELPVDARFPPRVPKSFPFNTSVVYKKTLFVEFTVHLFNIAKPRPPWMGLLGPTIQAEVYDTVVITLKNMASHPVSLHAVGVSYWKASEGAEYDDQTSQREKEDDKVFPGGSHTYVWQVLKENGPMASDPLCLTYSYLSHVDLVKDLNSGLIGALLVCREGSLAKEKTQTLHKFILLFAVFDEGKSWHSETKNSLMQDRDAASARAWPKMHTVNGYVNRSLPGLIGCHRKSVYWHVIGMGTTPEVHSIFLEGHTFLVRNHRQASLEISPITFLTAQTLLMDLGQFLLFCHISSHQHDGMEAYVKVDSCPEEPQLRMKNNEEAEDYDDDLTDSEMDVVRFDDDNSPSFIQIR
T2 chain 2: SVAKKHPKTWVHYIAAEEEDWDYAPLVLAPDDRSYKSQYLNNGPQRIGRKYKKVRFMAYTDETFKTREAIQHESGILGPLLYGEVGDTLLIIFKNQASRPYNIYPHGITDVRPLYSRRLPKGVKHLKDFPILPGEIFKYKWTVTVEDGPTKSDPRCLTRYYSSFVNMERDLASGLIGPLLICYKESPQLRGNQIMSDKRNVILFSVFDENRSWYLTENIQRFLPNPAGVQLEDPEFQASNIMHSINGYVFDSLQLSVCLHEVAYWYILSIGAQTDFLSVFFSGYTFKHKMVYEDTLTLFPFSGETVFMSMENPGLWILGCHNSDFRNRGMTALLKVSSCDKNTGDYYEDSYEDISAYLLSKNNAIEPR
T2 chain 3: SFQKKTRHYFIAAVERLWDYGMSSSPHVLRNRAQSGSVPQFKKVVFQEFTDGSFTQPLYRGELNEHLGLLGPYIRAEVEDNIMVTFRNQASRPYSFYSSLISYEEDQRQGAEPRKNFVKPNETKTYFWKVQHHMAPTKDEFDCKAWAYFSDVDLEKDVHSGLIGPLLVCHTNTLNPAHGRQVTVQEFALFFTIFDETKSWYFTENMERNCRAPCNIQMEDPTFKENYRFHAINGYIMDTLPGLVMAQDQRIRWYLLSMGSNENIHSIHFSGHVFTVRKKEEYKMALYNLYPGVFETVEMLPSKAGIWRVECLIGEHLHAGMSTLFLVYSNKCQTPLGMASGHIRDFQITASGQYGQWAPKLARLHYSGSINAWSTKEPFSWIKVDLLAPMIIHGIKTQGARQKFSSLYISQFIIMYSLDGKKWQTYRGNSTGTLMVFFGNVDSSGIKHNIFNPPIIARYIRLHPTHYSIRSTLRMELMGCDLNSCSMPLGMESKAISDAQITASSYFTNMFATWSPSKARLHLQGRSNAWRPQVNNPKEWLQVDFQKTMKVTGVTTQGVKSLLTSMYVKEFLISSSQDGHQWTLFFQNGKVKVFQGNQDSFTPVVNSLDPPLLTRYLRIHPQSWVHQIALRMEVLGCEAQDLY

B1: human activated protein C (protein)
chain 1: ANSFLEELRHSSLERECIEEICDFEEAKEIFQNVDDTLAFWSKHVDGDQCLVLPLEHPCASLCCGHGTCIDGIGSFSCDCRSGWEGRFCQREVSFLNCSLDNGGCTHYCLEEVGWRRCSCAPGYKLGDDLLQCHPAVKFPCGRPWKRMEKKRSHL
chain 2: LIDGKMTRRGDSPWQVVLLDSKKKLACGAVLIHPSWVLTAAHCMDESKKLLVRLGEYDLRRWEKWELDLDIKEVFVHPNYSKSTTDNDIALLHLAQPATLSQTIVPICLPDSGLAERELNQAGQETLVTGWGYHSSREKEAKRNRTFVLNFIKIPVVPHNECSEVMSNMVSENMLCAGILGDRQDACEGDSGGPMVASFHGTWFLVGLVSWGEGCGLLHNYGVYTKVSRYLDWIHGHIRDKEAPQKSWAP
For B1, in data set [1], the A1 Cleavage (nM A1/min/nM APC) (nM A1/min/nM APC) amounted to 0.1, the A2 Cleavage (nM A2/min/nM APC) (nM A2/min/nM APC) came out at 0.05 and the “fold reduction of A1 subunit cleavage rate relative to WT” value is on record as “reduced by ˜100-fold relative to WT”. In data set [2], this protein came in with an A1 Cleavage (nM A1/min/nM APC) (nM A1/min/nM APC) of 7.4 and an A2 Cleavage (nM A2/min/nM APC) (nM A2/min/nM APC) of 0.7.
